According to patent US20040053357A1 (ICAGEN, published 2004):

Molecular target: T1, Kv2.2 (UniProt Q92953 1-911, limits assumed)
T1 sequence (looked up): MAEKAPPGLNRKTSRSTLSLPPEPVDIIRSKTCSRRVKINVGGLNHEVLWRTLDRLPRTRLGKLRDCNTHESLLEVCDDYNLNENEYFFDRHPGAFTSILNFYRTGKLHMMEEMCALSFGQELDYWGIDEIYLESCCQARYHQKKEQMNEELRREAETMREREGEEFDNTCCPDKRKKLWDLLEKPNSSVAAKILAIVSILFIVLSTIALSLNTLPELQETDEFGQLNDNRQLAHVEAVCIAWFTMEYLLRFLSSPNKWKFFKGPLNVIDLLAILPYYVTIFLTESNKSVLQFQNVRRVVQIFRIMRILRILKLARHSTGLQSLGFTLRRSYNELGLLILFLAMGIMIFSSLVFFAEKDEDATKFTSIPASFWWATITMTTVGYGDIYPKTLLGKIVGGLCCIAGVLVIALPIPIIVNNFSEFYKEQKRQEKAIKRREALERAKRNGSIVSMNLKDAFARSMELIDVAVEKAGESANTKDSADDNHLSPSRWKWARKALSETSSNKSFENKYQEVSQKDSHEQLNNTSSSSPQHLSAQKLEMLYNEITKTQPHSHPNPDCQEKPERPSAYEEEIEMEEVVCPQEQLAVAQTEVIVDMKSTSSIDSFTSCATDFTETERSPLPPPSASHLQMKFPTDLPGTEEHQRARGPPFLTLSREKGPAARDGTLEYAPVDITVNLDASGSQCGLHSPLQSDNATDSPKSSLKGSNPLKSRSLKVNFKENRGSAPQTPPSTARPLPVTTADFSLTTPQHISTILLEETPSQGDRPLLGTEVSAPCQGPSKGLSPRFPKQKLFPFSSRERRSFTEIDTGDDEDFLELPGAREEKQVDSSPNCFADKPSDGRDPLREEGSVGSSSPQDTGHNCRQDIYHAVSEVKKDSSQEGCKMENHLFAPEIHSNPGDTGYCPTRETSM
Assay: cell-based or functional assay

B1: human Kv10.1 (other)
chain: MLKQSERRRSWSYRPWNTTENEGSQHRRSICSLGARSGSQASIHGWTEGNYNYYIEEDEDGEEEDQWKDDLAEEDQQAGEVTTAKPEGPSDPPALLSTLNVNVGGHSYQLDYCELAGFPKTRLGRLATSTSRSRQLSLCDDYEEQTDEYFFDRDPAVFQLVYNFYLSGVLLVLDGLCPRRFLEELGYWGVRLKYTPRCCRICFEERRDELSERLKIQHELRAQAQVEEAEELFRDMRFYGPQRRRLWNLMEKPFSSVAAKAIGVASSTFVLVSVVALALNTVEEMQQHSGQGEGGPDLRPILEHVEMLCMGFFTLEYLLRLASTPDLRRFARSALNLVDLVAILPLYLQLLLECFTGEGHQRGQTVGSVGKVGQVLRVMRLMRIFRILKLARHSTGLRAFGFTLRQCYQQVGCLLLFIAMGIFTFSAAVYSVEHDVPSTNFTTIPHSWWWAAVSISTVGYGDMYPETHLGRFFAFLCIAFGIILNGMPISILYNKFSDYYSKLKAYEYTTIRRERGEVNFMQRARKKIAECLLGSNPQLTPRQEN
  rate of activation at 0 mV: ~2 fold
